± gives the standard deviation of the averaged measurements.
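Also: PSI is a weighted mean of sequencing reads over stability bins, variants kept only with over 10 reads, mCherry proximal and sfGFP distal, peptide attached via GGGS linker.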

The test system of this data set is Saccharomyces cerevisiae. Description: protein stability index of tFT-peptide fusion (C-terminal peptide) (PSI (0-1 scale)); higher = more stable (slower turnover). The note with it: genetic background: wild type; temperature: 30 C.
Turning to RIETHNQKSPGL, the protein stability index came out at 0.737 ± 0.0023.
Next, RIGRHLATSRRV: 0.679 ± 0.0089; RIHQRTSLHKAH: 0.609 ± 0.13; RIKKKKNKARDI: 0.734 ± 0.035.
Next, RIKNMNNNEEKR: 0.714 ± 0.2.
Consider RIKTRDVSGNYC, for which the protein stability index is 0.708 ± 0.026.
For the sequence RILFGALYSSCK, the protein stability index came to 0.6782 ± 0.0062.
Next, RILPPPPPPSSR: 0.754 ± 0.026; RIPHRTRLARPT: 0.6716 ± 0.0064; RIRPPPAPPPPP: 0.569 ± 0.019.
As for RITKKRQQIKKR, the protein stability index came out at 0.7482 ± 0.0028.
As for RIVLGCSVVLRG, the figure is 0.615 ± 0.012; as for RIVLLICPYPVL, 0.554 ± 0.056.
As for RIWEVQFRRLSE, the figure is 0.823 ± 0.074; as for RKEETINKESRR, 0.742 ± 0.032; as for RKEGRRGRRGAK, 0.691 ± 0.069.
In the case of RKETQKIRKKRI, the protein stability index is 0.679 ± 0.03.
In turn, RKGEASRVRWSE yielded a protein stability index of 0.668 ± 0.061.
Next, RKGRVLIMTYRK: 0.682 ± 0.051; RKGSVVILGLGL: 0.65248 ± 0.0003.
The sequence RKKFKKQKKKNI returned a protein stability index of 0.703 ± 0.073.
The sequence RKKGGNSKKGKN yielded a protein stability index of 0.774 ± 0.12.
RKKHKYNKKNGQ had a protein stability index of 0.666 ± 0.07.
Next, RKKREKKGRRGK: 0.668 ± 0.0068; RKKRNKDARQQN: 0.679 ± 0.057.
Next, RKLAEVNCTVKV: 0.664 ± 0.036.
As for RKRASHALTPPC, the figure is 0.732 ± 0.024; as for RKRVKRTIYESK, 0.635 ± 0.1; as for RKSPRDTGLQRA, 0.706 ± 0.19.
Consider RKTPAITSNIQI, for which the protein stability index stood at 0.722 ± 0.027.
Next, RKTPIKTKKSAR: 0.687 ± 0.09; RLEERTNIKKIK: 0.699 ± 0.045.
Next, RLELRVPPSFAH: 0.715 ± 0.0095.
As for RLFSPLRPLSPP, the protein stability index was found to be 0.668 ± 0.032.
The sequence RLFSSSCLPFPP yielded a protein stability index of 0.781 ± 0.16.
Next, RLGAELGQLRCC: 0.66 ± 0.04; RLGGSLQRGKVV: 0.734 ± 0.088.
Turning to RLGNVGVGVGVG, the protein stability index turned out to be 0.616 ± 0.039.
As for RLGRSEVREYAW, the figure is 0.716 ± 0.024; as for RLHPPRPLTPPL, 0.683 ± 0.0087; as for RLKFCLSICLAP, 0.7321 ± 0.003.
Next, RLKKKKKEIKRR: 0.721 ± 0.011; RLLHLMCFCSGP: 0.644 ± 0.031; RLLPCATPHPDL: 0.647 ± 0.015.
Next, RLLPVTISSSLS: 0.702 ± 0.031; RLLYGIYDHGRQ: 0.731 ± 0.091; RLMKQKKMKRRK: 0.724 ± 0.025.
In turn, RLPCPLRSRALS returned a protein stability index of 0.626 ± 0.03.
Next, RLPHPPARVFSI: 0.691 ± 0.011; RLPPLFPPPPPC: 0.709 ± 0.038; RLPPPPPPSPHL: 0.711 ± 0.054.
As for RLPVRSGAMHGC, the figure is 0.665 ± 0.011; as for RLSGHLRLGRLG, 0.672 ± 0.086.
In turn, RLSSCSAPFPLL came in with a protein stability index of 0.7194 ± 0.0068.
Next, RLTDPHWALIQS: 0.839 ± 0.2.
Next, RLTKKKKEIKRR: 0.717 ± 0.014; RLTLTAKDNEGC: 0.733 ± 0.1; RLVDCDLTDKWH: 0.696 ± 0.018.
As for RLVSIHDTRESL, the figure is 0.727 ± 0.012.
Consider RLVSPVLPLSRL, for which the protein stability index was found to be 0.728 ± 0.031.
The sequence RLYPVPARPSPS displayed a protein stability index of 0.629 ± 0.046.
As for RMEPPLCIISPK, the protein stability index came out at 0.6605 ± 0.0065.
Next, RNKKKKEKKKVE: 0.693 ± 0.038.
Next, RNLCHILRHERT: 0.708 ± 0.088; RNQTRKTTQKPR: 0.661 ± 0.01; RNRVVPITARLT: 0.545 ± 0.014.
As for RNTIKMKENKRI, the figure is 0.643 ± 0.042; as for RNTKGIIKKKKE, 0.702 ± 0.042; as for RNYEGTKIEEQE, 0.7219 ± 0.0047.
Consider RNYEKRSIIVCK, for which the protein stability index was determined as 0.497 ± 0.031.
As to RNYIVLYYDEGD, the protein stability index came to 0.673 ± 0.074.
As for RPAESPPAFYNR, the figure is 0.774 ± 0.062; as for RPAGGPSGGEGV, 0.689 ± 0.074.
RPDTGPPRRNRE displayed a protein stability index of 0.715 ± 0.031.
Next, RPFVSSAGSQFP: 0.808 ± 0.046; RPFYPLVRPRTR: 0.798 ± 0.2.
As for RPGAFDNGLTLP, the figure is 0.682 ± 0.055.
As for RPGGRLLVWVGG, the figure is 0.55 ± 0.038.
For the sequence RPGPGHYRSIIL, the protein stability index worked out at 0.669 ± 0.11.
As for RPHPQRANAPGH, the figure is 0.69373 ± 9.2e-06; as for RPHTSPPPRHLY, 0.61 ± 0.016.
Next, RPPAPVFPNFPG: 0.708 ± 0.022; RPPAVVHLQPFY: 0.7016 ± 0.0064.
As for RPPFPPLPLPPP, the figure is 0.674 ± 0.088.
In turn, RPPGLIDSTIQP displayed a protein stability index of 0.602 ± 0.034.
As for RPPLLSPSPPPP, the figure is 0.649 ± 0.014; as for RPPLSSPPPPPP, 0.701 ± 0.017.
Next, RPPPLLPARLSL: 0.727 ± 0.028; RPPRPAATGVQH: 0.683 ± 0.018; RPPSLCSYSICV: 0.585 ± 0.0092.
As for RPRKPGLACKHL, the figure is 0.652 ± 0.034; as for RPSPPLLLPPAP, 0.71822 ± 0.00068; as for RPSTVPGHGSDT, 0.677 ± 0.011.
As for RPSYRFFVRCSP, the protein stability index worked out at 0.762 ± 0.053.
Next, RPTSTHQPASPS: 0.684 ± 0.025; RPVVASRQASHS: 0.703 ± 0.021.
As for RQEFSGAPPHLI, the figure is 0.697 ± 0.029; as for RQFRVVGCVCQP, 0.686 ± 0.037; as for RQHYFDVLGEMY, 0.7113 ± 0.0027.
RQLLAVAELLTF: the protein stability index turned out to be 0.677 ± 0.086.
Next, RQRLGLRIIIPS: 0.624 ± 0.017.
In turn, RQRWLSELSKAL yielded a protein stability index of 0.712 ± 0.083.
As for RQSGSDFYGRSY, the figure is 0.663 ± 0.032.
In turn, RQYARKKKKVRN had a protein stability index of 0.683 ± 0.025.
Next, RRADGASLNNSV: 0.697 ± 0.028; RRAHATLPMNEF: 0.616 ± 0.015; RRAPTTATPARP: 0.826 ± 0.14.
Consider RRASTVRVPTCW, for which the protein stability index was found to be 0.701 ± 0.019.
As for RRCDKTMSEGFF, the figure is 0.692 ± 0.078; as for RRCGTERVKARE, 0.766 ± 0.023; as for RRGYSNCMTLWI, 0.702 ± 0.049.
As for RRHLSLCLLPSL, the figure is 0.685 ± 0.011; as for RRKTKTYRSWME, 0.649 ± 0.035.
As for RRLANMIFFLGG, the figure is 0.69 ± 0.042.
RRLDGDLSPPIR displayed a protein stability index of 0.664 ± 0.095.
As for RRLGCDFDTYKK, the figure is 0.718 ± 0.043.

The values are drawn from the supplement of paper PMC10724198.
